Data reported in publication PMC8299219 (Cell, 2021).

B1: C81B10 (antibody, V domains shown)
VH: QLQLQESGPGLVKPSQTLSLTCTVSGGSISSGDYYWSWIRQPPGKGLEWIGYIYYSGSTYYNPSLKSRVTISVDTSKNQFSLKLSSVTAADTAVYYCARVRGTYYYVSGSYYPRPLYYYYMDVWGKGTTVTVSS
VL: not shown
B2: C93D6 (antibody, V domains shown)
VH: EVQLVESGGGLVKPGGSLRLSCAASGFTFSSYSMNWVRQAPGKGLEWVSSISSSSSYIYYADSVKGRFTISRDNAKNSLYLQMNSLRAEDTAVYYCASDLMEDYDFLSGSATSPFDYWGQGTLVTVSS
VL: not shown
B3: G32L2 (antibody, V domains shown)
VH: QVQLVESGGGVVQPGTSLRLSCAASGFTFSNYDIHWVRQAPGKGLEWVAVISYDGSNKYYADSVKGRFTISRDNSKNTLYLQMNSLRAEDTAVYYCAKDLVLRYFDWLFDGPDYWGQGTLVTVSS
VL: SYELTQPPSVSVSPGQTARITCSGDALPKKYAYWYQQKSGQAPVLVIYEDSKRPSGIPERFSGSSSGTMATLTISGAQVEDEADYYCYSTDSSGNHGVFGGGTKLTVL
B4: C41C3 (antibody, V domains shown)
VH: QVQLQESGPGLVKPSETLSLTCTVSGGSISSYYWSWIRQPPGKGLEWIGYIYYSGSTNYNPSLKSRVTISVDTSKNQFSLKLSSVTAADTAVYYCARAAEYYDFWSGYYRNWFDPWGQGTLVTVSS
VL: not shown
B5: C81E3 (antibody, V domains shown)
VH: QVQLVESGGGVVQPGRSLRLSCAASGFTFSSYAMHWVRQAPGKGLEWVAVISYDGSNKYYADSVKGRFTISRDNSKNTLYLQMNSLRAEDTAVYYCARVSSMDVLRYFDPLDVWGNGTTVTVSS
VL: SYELTQPPSVSVSPGQTARITCSGDALPKQYAYWYQQKPGQAPVLVIYKDSERPSGIPERFSGSSSGTTVTLTISGVQAEDEADYYCQSADSSGTYHVVFGGGTKLTVL
B6: C81B2 (antibody, V domains shown)
VH: QVQLVQSGAEVKKPGASVKVSCKVSGYTLIELSMHWVRQAPGKGLEWMGGFDPEDGETIYAQKFQGRVTMTEDTSTDTAYMELSSLRSEDTAVYYCATGPSIAVRGWFDPWGQGTLVTVSS
VL: QSVLTQPPSVSAAPGQKVTISCSGSSSNIGNNYVSWYQQLPGTAPKLLIYENNKRPSGIPDRFSGSKSGTSATLGITGLQTGDEADYYCGTWDSSLSAGGVFGGGTKLTVL
B7: C81C6 (antibody, V domains shown)
VH: QVQLVQSGAEVKKPGASVKVSCKVSGYTLTELSMHWVRQAPGKGLEWMGGFDPEDGETIYAQKFQGRVTVTEDTSTDTAYMELSSLRSEDTAVYYCATSPAIAATGWLDPWGQGTLVTVSS
VL: QSALTQPASVSGSPGQSITISCTGTSSDVGSYNLVSWYQQHPGKAPKLMIYEGNKRPSGVSNRFSGSKSGNTASLTISGLQAEDEADYYCCSYAGSSTHWVFGGGTKLTVL
B8: C83A8 (antibody, V domains shown)
VH: QVQLVQSGAEVKKPGSSVKISCKASGGTFSSNAISWVRQAPGQGLEWMGGIIPILTTTNYAERLQGRVTITADESTSTAYMELSSLRSEDTAVYYCASQGRKSCITVFGVVDLLCYSNGMDVWGQGTTVTVSS
VL: QSALTQPASVSGSPGQSITISCTGTSSDVGGYKYVSWYQHHPGKAPKLMIYDVSNRPSGVSNRFSGSKSGNTASLTISGLQAEDEAEYYCSSFTTSSTLVVFGGGTKLTVL
B9: C81H5 (antibody, V domains shown)
VH: QVQLVQSGAEVRKPGASVKVSCKVSEYTLTELSIHWVRQAPGKGLEWMGGFDPEDGETIYAQKFQGRVTMTEDTSTDTAYMELSSLRSEDTAVYYCATAPAYCPGGVCPRGWFDPWGQGTLVTVSS
VL: QSALTQPRSVSGSPGQSVTISCTGTSSDVGGYNYVSWYQQHPGKAPKLMIYDVSKRPSGVPDRFSGSKSGNTASLTISGLQAEDEADYYCCSYAGSYTYVFGTGTKVTVL
B10: G32L6 (antibody, V domains shown)
VH: QVQLVQSGAEVKKPGASVKVSCKVSGYTLTELSMHWVRQAPGKGLEWMGGFDPEDGETIYAQKFQGRVTMTEDTSTDTAYMELSTLRSEDTAVYYCATAPAVAGTFENYYYYYGLDVWGQGTTVTVSS
VL: not shown
B11: C12I5 (antibody, V domains shown)
VH: QVQLQESGPGLVKPSGTLSLTCAVSGGSISSSNWWSWVRQPPGKGLEWIGEIYHSGSTNYNPSLKSRVTISVDKSKNQFSLKLSSVTAADTAVYYCARGWGSSSYWFDPWGQGTLVTVSS
VL: QSALTQPASVSGSPGQSITISCTGTSSDVGSYNLVSWYQQHPGKAPKLMIYEGSKRPSGVSNRFSGSKSGNTASLTISGLQAEDEADYYCCSYAGSSTWVFGGGTKLTVL
B12: C12I11 (antibody, V domains shown)
VH: QVQLQESGPGLVKPSGTLSLTCAISGGSISSSNWWSWVRQPPGKGLEWIGEIYHSGSTNYNPSLKSRVTISVDKSKNQFSLKLSSVTAADTAVYYCARGALVPAARLNAFDIWGQGTMVTVSS
VL: QSALTQPASVSGSPGQSITISCTGTSSDVGSYNLVSWYQQHPGKAPKLMIYEGSKRPSGVSNRFSGSKSGNTASLTISGLQAEDEADYYCCSYAGSSTYVFGTGTKVTVL
B13: C12D6 (antibody, V domains shown)
VH: QLQLQETGPGLVKPSGTLSLTCAVSGDSISSSDWWTWVRQPPGKGLEWIGEIYHSGSTNYNPSLKSRVTISVDKSKNQFSLKLSSVTAADTAVYYCARRGRAASERGTGNFDYWGQGTLVTVSS
VL: QSALTQPASVSGSPGQSITISCTGTSSDVGSYNLVSWYQQHPGKAPKLMIYEVSKRPSGVSNRFSGSKSGNTASLTISGLQAEDEADYYCCSYAGSSTWVFGGGTKLTVL
B14: C81G10 (antibody, V domains shown)
VH: QVQLVQSGAEVKKPGASVKVSCKVSGYTLTELSIHWVRQAPGKGLEWMGGFDPEDGETIYAQKFQGRVTMTEDTSTDTAYMELSSLRSEDTAVYYCATTTVLAAASWFDPWGQGTLVTVSS
VL: QSALTQPASVSGSPGQSITISCTGTNSDVGSYNLVSWYQQHPGKAPKLMIYEGSKRPSGVSNRFSGSKSGNTASLTISGLQAEDEADYYCCSYAGSGTVVFGGGTKLTVL
B15: C12J11 (antibody, V domains shown)
VH: QVQLQESGPGLVKPSGTLSLTCAVSGGSISSSNWWSWVRQPPGKGLEWIGEIYHSGSTNYNPSLKSRVTISVDKSKNQFSLKLSSVTAADTAVYYCAIRASGYYNWFDPWGQGTLVTVSS
VL: QSALTQPASVSGSPGQSITISCTGTSSDVGSYNLVSWYQQHPGKAPKLMIYEGSKRPSGVSNRFSGSKSGNTASLTISGLQAEDEADYYCYSYAGSSTWVFGGGTKLTVL
B16: C81A3 (antibody, V domains shown)
VH: QVQLQESGPGLVKPSGTLSLTCAVSGGSISSSNWWSWVRQPPGKGLEWIGEIYHSGSTNYNPSLKSRVTISVDKSKNQFSLKLSSVTAADTAVYYCARRYCSGGSCSGFDYWGQGTLVTVSS
VL: QSALTQPASVSGSPGQSITISCTGTSSDVGSYNLVSWYQHHPGKAPKLMIYEGSKRPSGVSNRFSGSKSGNTASLTISGLQAEDEADYYCCSYAGFSTWVFGGGTKLTVL
B17: C41N3 (antibody, V domains shown)
VH: EVQLVESGGGLVQPGRSLRLSCAASGFTFDDYAMHWVRQAPGKGLEWVSGISWQSGSIGYADSVKGRFTISRDNAKNSLYLQMNSLRAEDTALYYCAKDPGYDSSGYYYDYWGQGALVTVSS
VL: not shown
B18: G32L7 (antibody, V domains shown)
VH: EVQLLESGGGSVQPGGSLRLSCAASGFTFSSYAMSWVRQAPGKGLEWVSVISGSGGSTYYADSVKGRFTISRDNSKNTLYLQMNSLRAEDTAVYYCAKAERITMLVVVTLIDYWGQGTLVTVSS
VL: QSVLTQPPSVSAAPGQKVTISCSGSSSNIGNNYVSWYQQLPGTAPKLLIYDNNKRPSGIPDRFSGSKSGTSATLGITGLQTGDEADYYCGTWDSSLSAVVFGGGTKLTVL
B19: C83A7 (antibody, V domains shown)
VH: QVQLQESGPGLVKPSETLSLTCTVSGGSVSSGSYYWSWIRQPPGKGLEWIGYIYYSGRTNYNPSLKSRVTISVDTSKNQFSLKLSSVTAADTAVYYCARTVITMIVGNWYFDLWGRGTLVTVSS
VL: not shown
B20: C53E4 (antibody, V domains shown)
VH: QVQLVQSGAEVKKPGASVKVSCKASGYTYTSYGISWVRQAPGRGLEWMGWISAYNGNTNYAQKLQGRVTMTTDTSTSTAYMELRSLRSDDTAVYYCARDQGLWYYYDSSGFALDYWGQGTLVTVSS
VL: EIVLTQSPATLSLSPGERATLSCRASQSVSSYLAWYQQKPGQAPRLLIYDASNRATGIPARFSGSGSGTDFTLTISSLEPEDFAVYYCQQRSNWPRYTFGQGTKLEIK
B21: C53E6 (antibody, V domains shown)
VH: EVQLVESGGGLVKPGGSLKLSCAASGFTFSSYSMNWVRQAPGKGLEWVSSISSSSSYIYYADSVKGRFTISRDNAKNSLYLQMNSLRAEDTAVYYCARASYDFWSGQDHWFDPWGQGTLVTVSS
VL: EIVLTQSPATLSLSPGERATLSCRASQSVSSYLAWYQQKPGQAPRLLIYDASNRATGIPAKFSGSGSGTDFTLTISSLEPEDFAVYYCQQRSNWPPITFGQGTRLEIK
B22: C81D7 (antibody, V domains shown)
VH: not shown
VL: SYELTQPPSVSVAPGKTARITCGGNNIGSKSVHWYQQKPGQAPVLVVYDDSDRPSGIPERFSGSNSGNTATLTISRVEAGDEADYYCQVWDSSSDSWVFGGGTKLTVL
B23: C83B6 (antibody, V domains shown)
VH: EVQLVESGGGLVKPGGSLRLSCAASGFTFSSYSMNWVRQAPGKGLEWVSYISSSSSTIYYADSVKGRFTISRDNAKNSLYLQMNSLRDEDTAVYYCARDRGGYGPYYYGMDVWGQGTTVTVSS
VL: not shown
B24: G32A12 (antibody, V domains shown)
VH: QVQLVQSGAEVKKPGASVKVSCKASGYTFTSYYMHWVRQAPGQGLEWMGIINPSGGSTSYAQKFQGRVTMTRDTSTSTVYMELSSLRSEDTAVYYCARDPTMTTVTTLDDYYYYYGMDVWGQGTTVTVSS
VL: not shown
B25: C81H2 (antibody, V domains shown)
VH: QVQLVQSGSELKKPGASVKVSCKASGYTFTSYAMNWVRQAPGQGLEWMGWINTNTGNPTYAQDFTGRFVFSLDTSVSTAYLQISSLKAEDTAMYYCARGSMITFGGILEPVLQFDYWGQGTLVTVSS
VL: not shown

Target: SARS-CoV-2 S ectodomain trimer, prefusion-stabilized, 2P variant (Wrapp et al., 2020) (SARS-CoV-2, Wuhan-Hu-1, UniProt P0DTC2, stabilised)

| Binder | binding result |
| --- | --- |
| B1 | binds |
| B2 | binds |
| B3 | binds |
| B4 | binds |
| B5 | binds |
| B6 | binds |
| B7 | binds |
| B8 | binds |
| B9 | binds |
| B10 | binds |
| B11 | binds |
| B12 | binds |
| B13 | binds |
| B14 | binds |
| B15 | binds |
| B16 | binds |
| B17 | binds |
| B18 | binds |
| B19 | binds |
| B20 | binds |
| B21 | binds |
| B22 | binds |
| B23 | binds |
| B24 | binds |
| B25 | binds |
